# Literature values in patent US10786531B2, “Mineral salt-sulfonic acid compositions and methods of use” (BMG PHARMA SPA, priority 2009, dated 2020).
# Conditions: animal studies
molecule,measurement,value
"lactoferrin: globular, cationic, non-heme iron-binding protein (protein, UniProt P02788 20-710, looked up) Lactotransferrin: GRRRSVQWCAVSQPEATKCFQWQRNMRKVRGPPVSCIKRDSPIQCIQAIAENRADAVTLDGGFIYEAGLAPYKLRPVAAEVYGTERQPRTHYYAVAVVKKGGSFQLNELQGLKSCHTGLRRTAGWNVPIGTLRPFLNWTGPPEPIEAAVARFFSASCVPGADKGQFPNLCRLCAGTGENKCAFSSQEPYFSYSGAFKCLRDGAGDVAFIRESTVFEDLSDEAERDEYELLCPDNTRKPVDKFKDCHLARVPSHAVVARSVNGKEDAIWNLLRQAQEKFGKDKSPKFQLFGSPSGQKDLLFKDSAIGFSRVPPRIDSGLYLGSGYFTAIQNLRKSEEEVAARRARVVWCAVGEQELRKCNQWSGLSEGSVTCSSASTTEDCIALVLKGEADAMSLDGGYVYTAGKCGLVPVLAENYKSQQSSDPDPNCVDRPVEGYLAVAVVRRSDTSLTWNSVKGKKSCHTAVDRTAGWNIPMGLLFNQTGSCKFDEYFSQSCAPGSDPRSNLCALCIGDEQGENKCVPNSNERYYGYTGAFRCLAENAGDVAFVKDVTVLQNTDGNNNEAWAKDLKLADFALLCLDGKRKPVTEARSCHLAMAPNHAVVSRMDKVERLKQVLLHQQAKFGRNGSDCPDKFCLFQSETKNLLFNDNTECLARLHGKTTYEKYLGPQYVAGITNLKKCSTSPLLEACEFLRK",dose well tolerated with minimum toxic effects,2000 mg/kg/day
